Laboratory results taken from PMC5098186, “Nuclear import of dimerized ribosomal protein Rps3 in complex with its chaperone Yar1” (Scientific Reports, 2016).

T1: Kap60ΔIBB (S. cerevisiae, UniProt Q02821 81-542)
T1 construct: Kap60/Srp1 (importin α) of S. cerevisiae lacking the N-terminal IBB domain (80 amino acids); also called purified Kap60ΔIBB; purified Kap60; source: E. coli BL21 (DE3) Rosetta Star, purified (glutathione-agarose, eluted with TEV protease)
T1 sequence (looked up): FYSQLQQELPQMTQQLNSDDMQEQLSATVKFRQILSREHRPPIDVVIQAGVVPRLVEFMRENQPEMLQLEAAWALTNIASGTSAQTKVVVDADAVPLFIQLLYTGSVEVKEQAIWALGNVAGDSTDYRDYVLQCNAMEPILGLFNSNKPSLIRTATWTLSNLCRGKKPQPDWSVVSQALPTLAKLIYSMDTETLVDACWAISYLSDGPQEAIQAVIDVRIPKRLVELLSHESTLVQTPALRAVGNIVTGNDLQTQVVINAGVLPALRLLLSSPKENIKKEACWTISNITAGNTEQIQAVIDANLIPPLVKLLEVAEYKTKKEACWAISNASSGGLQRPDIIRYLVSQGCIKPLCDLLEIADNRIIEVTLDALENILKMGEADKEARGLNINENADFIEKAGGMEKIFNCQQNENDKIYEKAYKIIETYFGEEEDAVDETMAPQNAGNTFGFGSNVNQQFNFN

T2: GST-Kap123 (S. cerevisiae, UniProt P40069 1-1113)
T2 construct: Kap123 (karyopherin β4) of S. cerevisiae, recombinant; also called GST-tagged Kap123; source: E. coli BL21 (DE3) Rosetta Star, immobilized on glutathione-agarose beads
T2 sequence (looked up): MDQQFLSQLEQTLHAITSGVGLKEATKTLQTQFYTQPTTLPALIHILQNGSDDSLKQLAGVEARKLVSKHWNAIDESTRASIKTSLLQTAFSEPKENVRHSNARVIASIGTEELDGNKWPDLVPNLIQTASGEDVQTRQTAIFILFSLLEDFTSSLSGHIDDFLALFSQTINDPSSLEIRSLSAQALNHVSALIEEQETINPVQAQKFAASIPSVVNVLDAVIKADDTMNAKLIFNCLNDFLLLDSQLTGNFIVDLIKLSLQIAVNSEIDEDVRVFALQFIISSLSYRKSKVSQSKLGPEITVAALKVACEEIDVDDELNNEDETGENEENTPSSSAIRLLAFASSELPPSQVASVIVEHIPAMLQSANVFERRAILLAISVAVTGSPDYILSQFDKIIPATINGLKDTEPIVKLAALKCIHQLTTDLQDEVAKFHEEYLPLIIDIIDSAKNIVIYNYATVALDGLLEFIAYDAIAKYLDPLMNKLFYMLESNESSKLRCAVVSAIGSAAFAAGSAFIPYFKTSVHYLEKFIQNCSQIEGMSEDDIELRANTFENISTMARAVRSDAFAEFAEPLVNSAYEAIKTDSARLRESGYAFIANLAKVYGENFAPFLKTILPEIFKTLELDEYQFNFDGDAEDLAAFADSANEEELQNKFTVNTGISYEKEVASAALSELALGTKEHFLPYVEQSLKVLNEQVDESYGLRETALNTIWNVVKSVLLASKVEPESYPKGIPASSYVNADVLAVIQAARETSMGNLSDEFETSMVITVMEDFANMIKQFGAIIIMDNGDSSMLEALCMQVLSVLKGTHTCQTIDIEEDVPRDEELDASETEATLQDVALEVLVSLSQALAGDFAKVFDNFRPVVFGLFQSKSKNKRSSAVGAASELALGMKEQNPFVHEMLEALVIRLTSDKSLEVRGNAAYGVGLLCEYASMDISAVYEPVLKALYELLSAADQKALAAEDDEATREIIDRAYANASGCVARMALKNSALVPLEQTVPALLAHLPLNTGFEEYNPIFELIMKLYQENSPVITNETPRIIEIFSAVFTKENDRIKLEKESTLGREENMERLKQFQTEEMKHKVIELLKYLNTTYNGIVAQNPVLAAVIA

T3: GST-Kap60ΔIBB (S. cerevisiae, UniProt Q02821 81-542)
T3 construct: Kap60/Srp1 (importin α) of S. cerevisiae lacking the N-terminal IBB domain (80 amino acids); GST can be removed with TEV protease; also called GST-tagged Kap60ΔIBB; source: E. coli BL21 (DE3) Rosetta Star, immobilized on glutathione-agarose beads
T3 sequence (looked up): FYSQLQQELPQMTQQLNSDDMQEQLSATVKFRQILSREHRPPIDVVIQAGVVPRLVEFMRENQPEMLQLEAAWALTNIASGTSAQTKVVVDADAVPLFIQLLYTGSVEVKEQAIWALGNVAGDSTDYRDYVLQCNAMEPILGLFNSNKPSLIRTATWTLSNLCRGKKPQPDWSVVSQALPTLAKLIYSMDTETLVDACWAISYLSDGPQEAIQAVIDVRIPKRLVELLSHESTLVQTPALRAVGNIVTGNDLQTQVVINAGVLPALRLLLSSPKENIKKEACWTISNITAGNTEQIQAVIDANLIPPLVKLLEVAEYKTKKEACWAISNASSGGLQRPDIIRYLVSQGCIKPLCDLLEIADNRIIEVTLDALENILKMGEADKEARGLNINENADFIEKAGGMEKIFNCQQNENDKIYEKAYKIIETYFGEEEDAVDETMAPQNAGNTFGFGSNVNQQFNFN

B1: His6-Rps3 (natural protein, S. cerevisiae, UniProt P05750 1-240, looked up)
chain: MVALISKKRKLVADGVFYAELNEFFTRELAEEGYSGVEVRVTPTKTEVIIRATRTQDVLGENGRRINELTLLVQKRFKYAPGTIVLYAERVQDRGLSAVAQAESMKFKLLNGLAIRRAAYGVVRYVMESGAKGCEVVVSGKLRAARAKAMKFADGFLIHSGQPVNDFIDTATRHVLMRQGVLGIKVKIMRDPAKSRTGPKALPDAVTIIEPKEEEPILAPSVKDYRPAEETEAQAEPVEA
notes: ribosomal protein Rps3 of S. cerevisiae, recombinant; also called wild-type Rps3 (of the His6-Rps3/Flag-Yar1 complex); source: E. coli BL21 (DE3) Rosetta Star, purified as His6-Rps3/Flag-Yar1 complex (Ni-NTA agarose); not shown: His6, N-terminal, kept

What was measured:
Settings in all cases: both partners purified
His6-Rps3 = target: B1; experiment: pull-down; His6-Rps3/Flag-Yar1 complex immobilized via His6-Rps3 on Ni-NTA agarose, incubated with increasing amounts of purified Kap60ΔIBB for 1 h at 4 °C; eluted with 300 mM imidazole (Ni-NTA eluate); Coomassie staining
Kap60ΔIBB = target: T1, Kap60ΔIBB; experiment: as above
GST-Kap123 = target: T2, GST-Kap123; experiment: pull-down; GST-tagged importins immobilized on glutathione-agarose beads, incubated with purified His6-Rps3/Flag-Yar1 complex or purified Flag-Yar1; 50 mM Tris pH 7.5, 150 mM NaCl, 1 mM DTT; eluted by boiling (Fig. 2b, Supplementary Fig. S2) or by TEV cleavage (Fig. 2c); Coomassie staining or Western blotting
GST-Kap60ΔIBB = target: T3, GST-Kap60ΔIBB; experiment: as above

Row | binding result (His6-Rps3) | binding result (Kap60ΔIBB) | binding result (GST-Kap123) | binding result (GST-Kap60ΔIBB) | Binder
1 | binds | – | – | – | Flag-Yar1 (natural protein, S. cerevisiae, UniProt P46683 1-200, looked up, Yar1, specific chaperone of Rps3, S. cerevisiae, recombinant) MGLHSEPLDQEDQDTIILDARAGDLDSLKDIFTTLVSPELLSTCKESESDSTALHMAAANGHIETVRYILETVSRANSAEDLKAFVNEVNKTGNTALHWASLNGKLDVVKLLCDEYEADPFIRNKFGHDAIFEAENSGKEEVETYFLKKYDVEPEDDEEDTQTEGKNSVQITKGTEIEQVTKEATEALREETEKLNINKD
2 | – | binds | binds | binds | B1
